Source: publication PMC10602183 (2023)

Key:
Test in all cases: SPR
[1] = biological target: wild type gp120 Env protein AE (HIV-1 clade E isolate 93TH976.17)
[2] = biological target: autologous gp120 antigen Czm (HIV-1 clade C isolate 96ZM652)
[3] = biological target: autologous gp120 antigen B (HIV-1 clade B isolate 92US715.6)
[4] = biological target: autologous gp120 antigen A2 (HIV-1 clade A isolate 92UG037.8)
Bal gp120 [5] = biological target: T1, Bal gp120 (HIV-1 clade B isolate Bal)
Bal gp120 [6] = biological target: T1, Bal gp120; remark: listed apart in the source

B1: HmAb64 (antibody, V domains shown)
VH: QVQLVQSGAEVKKPGASVKVSCKASGYTFTSYDITWVRQAPGQGLEWMGWISAYNGDTNYAQRLQGRVTMTTDTSTSTAYMELRSLRSDDTAVYYCARAKHTVLVTAMRWFDPWGQGTLVTVSS
VL: DIQMTQSPSSLSASVGDRVTITCRASQSISNYLNWYQQKPGKAPKLLISATSSLQSGVPSRFSGSGSGTDFTLTISSLQPDDFATYYCQQSYSTPWTFGQGTKLEIK
B1 was tested. Which Kd [1] did it give?
Its Kd is 20 nM.

And the koff [1]?
The koff was 0.000423 s⁻¹.

And the Kd [2]?
Its Kd is 22.5 nM.

And the koff [2]?
The koff was 0.000454 s⁻¹.

What about the Kd [3] of the same binder?
Its Kd is 22.9 nM.

And the koff [3]?
The koff was 0.000684 s⁻¹.

What about the Kd [4] of the same binder?
Its Kd is 39.4 nM.

What about the koff [4] of the same binder?
The koff was 0.000641 s⁻¹.

What about the Kd (Bal gp120 [5]) of the same binder?
The Kd was 16 nM.

And the koff (Bal gp120 [6])?
The koff was 0.000459 s⁻¹.
